From US20100143371A1 (published 2010)
Changes are numbered by the printed parent chain.

T1: endogenous Etk of NSR cells (mouse, UniProt P97504 1-651)
T1 sequence (looked up): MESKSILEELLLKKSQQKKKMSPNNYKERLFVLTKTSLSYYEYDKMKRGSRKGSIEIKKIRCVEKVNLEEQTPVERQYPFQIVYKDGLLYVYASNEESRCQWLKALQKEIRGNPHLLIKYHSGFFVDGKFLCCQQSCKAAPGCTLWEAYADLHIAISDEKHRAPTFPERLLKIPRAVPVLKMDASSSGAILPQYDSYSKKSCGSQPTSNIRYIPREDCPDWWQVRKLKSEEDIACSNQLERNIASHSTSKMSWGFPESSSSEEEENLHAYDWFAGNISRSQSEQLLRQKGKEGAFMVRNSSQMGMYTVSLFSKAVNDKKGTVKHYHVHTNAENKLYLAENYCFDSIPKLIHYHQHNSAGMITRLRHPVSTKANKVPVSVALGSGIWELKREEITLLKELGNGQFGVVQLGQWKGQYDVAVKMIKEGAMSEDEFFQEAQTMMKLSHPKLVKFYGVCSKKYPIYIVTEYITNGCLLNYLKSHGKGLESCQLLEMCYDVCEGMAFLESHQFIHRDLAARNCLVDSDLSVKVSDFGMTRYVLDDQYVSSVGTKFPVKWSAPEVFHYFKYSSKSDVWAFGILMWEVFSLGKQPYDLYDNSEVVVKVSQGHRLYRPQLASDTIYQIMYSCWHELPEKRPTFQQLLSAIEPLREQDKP

B1: K7 intrabody (L7 expressed from pcDNA3.1-L7 in NSR cells) (antibody, V domains shown, not shown: small tags and cut ends)
VL: DIQMTQSPSSLSASVGDRVTITCRASQRIFTRLEWYQQKPGKAPMLLIYNVSHLQSGVPSRFSGSGSGTDFTLTISSLQPEDFATYYCQQTEIIPITFGQGTKVEIKQ
B2: K11 intrabody (L11 expressed from pcDNA3.1-L11 in NSR cells) (antibody, V domains shown, not shown: small tags and cut ends)
VL: B1 VL with R28W, R32E, E34A, M45K, V51A, H53Y, E92F, I93T, I94P, Q108R
B3: K5 intrabody (L5 expressed from pcDNA3.1-L5 in NSR cells) (antibody, V domains shown, not shown: small tags and cut ends)
VL: DIQMTQSPSSLSASVGDRVTITCRASQGIKMKLNWYQQKPGKAPKLLIYNTSHLQSGVPSRFSGSGSGTDFTLTISSLQPEDFATYYCQQHKTRPDTFGQGTKVEIKR
B4: K9 intrabody (L9 expressed from pcDNA3.1-L9 in NSR cells) (antibody, V domains shown, not shown: small tags and cut ends)
VL: B3 VL with G28A, M31N, N34G, N50K, T51A, H53Y, H91M, T93S, D96N
B5: L11 soluble single domain antibody (antibody, V domains shown)
VL: B1 VL with R28W, R32E, E34A, M45K, V51A, H53Y, E92F, I93T, I94P, Q108R
notes: Tie to L11 rests on list order and numbering; not shown: c-Myc tag (detected with anti-Myc-HRP)
B6: L12 soluble single domain antibody (antibody, V domains shown)
VL: DIQMTQSPSSLSASVGDRVTITCRASQWIFDRLHWYQQKPGKAPTLLIYNSSTLQSGVPSRFSGSGSGTDFTLTISSLQPEDFATYYCQQTKSRPSTFGQGTKVEIKR
notes: Single human kappa light chain variable domain, from pDOM5 in E. coli BL21, protein L purified; not shown: c-Myc tag (detected with anti-Myc-HRP)
B7: L7 soluble single domain antibody (antibody, V domains shown)
VL: B1 VL
notes: as for B6
B8: L5 soluble single domain antibody (antibody, V domains shown)
VL: B3 VL
notes: Single human kappa light chain variable domain (domain antibody), expressed from pDOM5 in E. coli BL21, purified on protein L, about 15 kDa; the tie to L5 rests on the order of the list and the numbering (CDRs 4, 6, 8 follow 2); not shown: c-Myc tag (detected with anti-Myc-HRP)
B9: L9 soluble single domain antibody (antibody, V domains shown)
VL: B3 VL with G28A, M31N, N34G, N50K, T51A, H53Y, H91M, T93S, D96N
notes: as for B6
B10: L15 soluble single domain antibody (antibody, V domains shown)
VL: B3 VL with G28N, M31T, N50R, T51V, H53T, H91T, T93K, D96F, K107E
notes: as for B6
B11: K15 intrabody (L15 expressed from pcDNA3.1-L15 in NSR cells) (antibody, V domains shown)
VL: B3 VL with G28N, M31T, N50R, T51V, H53T, H91T, T93K, D96F, K107E
notes: band of 12 kDa; not shown: c-Myc tag (detected with anti-c-Myc antibody)

Molecular target: T1, endogenous Etk of NSR cells
Assay: cell-based or functional assay

Point of comparison: B3, “in vitro autophosphorylation of immunoprecipitated Etk, percent of the wild-type enzyme (from NSR cells) activity retained” value ~49%. Against it:
- B1 — lower, ~37%
- B2 — lower, ~30%
- B4 — lower, ~38%

Point of comparison: B2, “in vitro kinase assay of Etk/intrabody immunocomplexes on polyEY, percent of activity of Etk derived from NSR cells” value ~25%. Against it:
- B1 — the same, ~25%
- B3 — the same, ~25%
- B4 — the same, ~25%

Molecular target: T2, GST-Etk kinase domain (human, UniProt P51813 417-675)
T2 sequence (P51813 417-675): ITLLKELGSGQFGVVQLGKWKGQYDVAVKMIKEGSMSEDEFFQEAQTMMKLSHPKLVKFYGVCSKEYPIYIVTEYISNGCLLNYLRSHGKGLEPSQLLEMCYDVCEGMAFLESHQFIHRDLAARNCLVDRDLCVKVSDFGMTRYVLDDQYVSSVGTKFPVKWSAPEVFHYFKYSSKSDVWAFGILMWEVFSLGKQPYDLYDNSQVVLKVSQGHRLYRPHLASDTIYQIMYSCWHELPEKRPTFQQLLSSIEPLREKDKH
Assay: cell-based or functional assay

Point of comparison: B7, “domain antibody concentration required to achieve 50% inhibition of Etk kinase activity (polyEY substrate, ELISA-based in vitro kinase assay)” value ~20 nM. Against it:
- B5 — 2-fold higher, ~40 nM
- B6 — the same, ~20 nM
- B8 — the same, ~20 nM
- B9 — the same, ~20 nM

Molecular target: T2, GST-Etk kinase domain
Assay: ELISA, purified domain antibody on immobilised GST-Etk, anti-Myc-HRP detection
Experimental: Quantitative Etk binding assay. Various concentrations of purified domain antibodies were added into a Maxi-sorp 96 well microtiter plate coated with 100 μl/well of 1 μg/ml GST-Etk and incubated for 1 h at RT. The plate was washed 3 times with PBST and then incubated with 100 μl/well of anti-Myc-HRP conjugate (1:5000 dilution) for 1 h at RT. The plate was washed 5 times, TMB peroxidase substrate was added and the absorbance at 450 nm was measured.
The antibody concentration required for 50% of maximum binding to Etk was 5 nM and 8 nM for L9 and L11, respectively, and approximately 20 nM for L5, L7, L12 and L15. […] Consistent with the binding data, all 6 domain antibodies blocked Etk enzymatic activity dose-dependently, as indicated by the reduction in the ability of recombinant Etk to phosphorylate the substrate, polyEY, in the presence of the domain antibodies (FIG. 2C).

Point of comparison: B6, EC50 ~20 nM. Against it:
- B5 — 2.5-fold lower, 8 nM
- B7 — the same, ~20 nM
- B8 — the same, ~20 nM
- B9 — 4-fold lower, 5 nM
- B10 — the same, ~20 nM

Molecular target: T1, endogenous Etk of NSR cells
Assay: co-immunoprecipitation from NSR cell lysate (protein L or anti-Etk), western blot
Experimental: Western immunoblotting and immunoprecipitation. Cells from a 150 mm dish were harvested in 1 ml lysis buffer containing 25 mM Tris-HCl pH 7.4, 2 mM sodium orthovanadate, 0.5 mM EDTA, 10 mM NaF, 10 mM sodium pyrophosphate, 25 mM NaCl and 1% Tx-100 supplemented with 1:1000 dilution of protease inhibitor cocktail. Cells were frozen and thawed twice, centrifuged and supernatant was collected. Samples of 50 μg protein extract were resolved by SDS-PAGE under reducing conditions, and transferred onto nitrocellulose membrane for western immunoblotting with the indicated antibodies. For immunoprecipitation, 0.5 mg of protein extracts were incubated with either protein L beads or anti-Etk antibodies coupled to protein A bead overnight at 4° C. The immunocomplex was washed 4 times with PBST and twice with 50 mM Hepes, pH 7.5, electrophored on an SDS-polyacrylamide gel under reducing conditions, and transferred onto nitrocellulose membrane for western immunoblotting with the indicated antibodies. In addition, the immunocomplex was also used as the source for enzyme (Etk kinase) in the in vitro kinase activity and autophosphorylation assays described below.
This was further confirmed when the cell lysate was immunoprecipitated with an anti-Etk antibody followed by blotting with an anti-c-Myc antibodies (FIG. 3C).

B11: no binding.
